Data published in paper PMC6439443.

Biological target: High-mannose IgG1 antibody (human)
Assay: SPR

EndoS2 E186L (catalytically inactive EndoS2 variant) (from UniProt T1WGN1 44-843) (enzyme)
Kd: > 100 µM
